Data taken from PMC8025675.

Molecular target: low-affinity anti-HER2 scFv (scFv Kd = 210 nM)
Assay: BLI

human epidermal growth factor receptor 2 (HER2) (from UniProt P04626 23-1255)
Kd: 210 nM
